One data set relates to MDA-MB-231 cells. As to the kind of experiment: MTT cytotoxicity, MDA-MB-231. It is filed as cell-based. Particulars: different concentrations, 72 h. An excerpt:
(§1) We next studied the cytotoxicity profile of the prodrug to MDA-MB-231 and MCF-7 cells by a MTT assay.

In a further data set the test system is MCF-7 cells. As to the kind of experiment: MTT cytotoxicity, MCF-7. In kind it is cell-based. To be noted: 72 h. The procedure: 3-(4,5-Dimethythiazol-2-yl)-2,5-diphenyltetrazolium bromide (MTT) assays were used to assess the metabolic activity of U87-MG and MCF-7 cancer cells. The cells were seeded in 96-well plates (Costar, Ill., USA) at an intensity of 4×10^4 cells mL^−1. After 24 h incubation, the medium was replaced by the probe suspension at different concentration of the prodrug and incubated at 37° C. After the designated time intervals, the wells were washed twice with 1×PBS buffer, and 100 μL of freshly prepared MTT (0.5 mg mL^−1) solution in culture medium was added into each well. The MTT medium solution was carefully removed after 3 h incubation in the incubator at 37° C. DMSO (100 μL) was then added into each well and the plate was gently shaken to dissolve all the precipitates formed. The absorbance of MTT at 570 nm was monitored by the microplate reader (Genios Tecan). Cell viability was expressed by the ratio of absorbance of the cells incubated with probe suspension to that of the cells incubated with culture medium only.
We next compared the relationship between the apoptosis induced fluorescence intensity change in cells and the cytotoxicity profile of the prodrug using both U87-MG and MCF-7 cells as an example. The fluorescence intensities at 480 nm are monitored upon excitation at 365 nm after incubation the cells for 6 h. The cytotoxicity of the cells was evaluated by a standard MTT method after the incubation for 72 h. In this experiment, we studied this effect using both U87-MG and MCF-7 cells. […] Also, we can find that higher cell viability of the cells will show lower fluorescence intensity which means low degrees of cell apoptosis. For example, when both cells are treated with 5 μM TPS-DEVD-Pt-cRGD, the cell viability is only 31% for U87-MG cells after 72 h incubation, while in sharp contrast, the cell viability is 92% for MCF-7 cells at the same conditions.
as §1

Data set [1] deals with T1, recombinant human caspase-3 (Homo sapiens, UniProt P42574).
T1 construct: purchased R&D Systems
T1 sequence (P42574 29-175 limits assumed): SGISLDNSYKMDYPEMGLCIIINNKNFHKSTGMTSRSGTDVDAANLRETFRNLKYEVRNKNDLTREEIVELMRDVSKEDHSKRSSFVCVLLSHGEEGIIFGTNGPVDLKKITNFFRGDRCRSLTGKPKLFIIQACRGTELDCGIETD
T1 sequence (P42574 176-277 limits assumed): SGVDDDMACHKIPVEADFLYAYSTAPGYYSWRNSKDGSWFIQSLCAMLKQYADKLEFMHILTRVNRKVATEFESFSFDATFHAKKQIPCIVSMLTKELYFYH
As to the kind of experiment: Enzymatic assay: fluorescence light-up on DEVD cleavage by caspase-3. In kind it is biochemical. To be noted: ascorbic acid pretreated TPS-DEVD-Pt-cRGD 10 μM, caspase-3 200 pM, inhibitor 10 μM. The procedure: DMSO stock solutions of TPS-DEVD-Pt-cRGD were diluted with a mixture of DMSO and PIPES (v/v=1/199) to 10 μM. Next, each probe was incubated with ascorbic acid or caspase-3 at room temperature and the change of fluorescence intensity was measured. The PL spectra were collected from 420 to 650 nm under an excitation wavelength at 365 nm.
To study the enzymatic response of TPS-DEVD-COOH, we performed in vitro enzymatic assays with recombinant human caspase-3. Mixtures of the ascorbic acid pretreated prodrug (10 μM) and caspases-3 (200 pM) were prepared and incubated in PIPES buffer. After 1 h incubation, the PL spectra were measured in the range from 425 to 650 nm.
The fluorescence change of the TPS-DEVD-Pt-cRGD solution (10 μM) upon addition of ascorbic acid and caspase-3 enzyme was also monitored over time in a mixture of DMSO/PIPEs (v/v=1/199) buffer. […] We further studied the effect of caspase-3 concentration on the solution emission.

Another data set has as its system ALP. As to the kind of experiment: ALP detection in solution. In kind it is biochemical. Particulars: emission maximum changes from 520 nm to 640 nm. From the text: The emission maximum of the solution changes from 520 nm to 640 nm in the presence of ALP.

On to `[NH3+][Pt-2]([NH3+])([Cl])([Cl])([O]C(=O)CCC(=O)NCCCC[n+]1ccc(/C=C/c2ccc(C(=C(c3ccccc3)c3ccccc3)c3ccccc3)cc2)cc1)[O]C(=O)CCC(=O)N[C@@H](CC(=O)O)C(=O)N[C@@H](CC(=O)O)C(=O)N[C@@H](CC(=O)O)C(=O)N[C@@H](CC(=O)O)C(=O)N[C@@H](CC(=O)O)C(=O)O` [PyTPE-Pt-D5], for which the cytotoxicity result with MDA-MB-231 cells and with MCF-7 cells was “do not show significant cytotoxicity” throughout.
As for `N=C(N)NCCC[C@@H]1NC(=O)[C@H](CCCCNC(=O)[C@H](CC(=O)O)NC(=O)[C@H](CC(=O)O)NC(=O)[C@H](CC(=O)O)NC(=O)[C@H](CC(=O)O)NC(=O)[C@H](CC(=O)O)NC(=O)CCC(=O)[O][Pt-2]([NH3+])([NH3+])([Cl])([Cl])[O]C(=O)CCC(=O)NCCCC[n+]2ccc(/C=C/c3ccc(C(=C(c4ccccc4)c4ccccc4)c4ccccc4)cc3)cc2)NC(=O)[C@@H](Cc2ccccc2)NC(=O)[C@H](CC(=O)O)NC(=O)CNC1=O` [PyTPE-Pt-D5-cRGD], the cytotoxicity entry was “much more obvious” with MDA-MB-231 cells and “minimum toxicity” with MCF-7 cells.
For `N=C(N)NCCC[C@@H]1NC(=O)[C@H](CCCCNC(=O)[C@H](CC(=O)O)NC(=O)[C@H](CC(=O)O)NC(=O)[C@H](CC(=O)O)NC(=O)[C@H](CC(=O)O)NC(=O)[C@H](CC(=O)O)NC(=O)CCCCCCC(=O)NCCCC[n+]2ccc(/C=C/c3ccc(C(=C(c4ccccc4)c4ccccc4)c4ccccc4)cc3)cc2)NC(=O)[C@@H](Cc2ccccc2)NC(=O)[C@H](CC(=O)O)NC(=O)CNC1=O` [PyTPE-C6-D5-cRGD], the cytotoxicity entry with MDA-MB-231 cells and with MCF-7 cells was “do not show significant cytotoxicity” each time.
In the case of `COC[C@@H]1CCCN1S(=O)(=O)c1ccc2c(c1)C(=O)C(=O)N2` [5-[(S)-(+)-2-(methoxymethyl)pyrrolidino]sulfonylisatin, reference compound], the “effect of inhibitor pretreatment on caspase-3 induced probe fluorescence” value in data set [1] is “most of the fluorescence is readily competed away”.
On to `CN(C)c1ccc(/C=C/C(=O)c2ccccc2OP(=O)(O)O)cc1` [probe-1], for which, in the data set on ALP, the “optical response to ALP” value is reported as “distinct optical response”.

Values taken from US20160356723A1, “Light-Up Probes Based On Fluorogens With Aggregation Induced Emission Characteristics For Cellular Imaging And Drug Screening” (NATIONAL UNIVERSITY OF SINGAPORE, priority 2014, published 2016).
